Article PMC9482650, “Quantitative fragmentomics allow affinity mapping of interactomes” (Nature Communications, 2022)

T1: DVL3, Q92997
T1 sequence (Q92997 244-331, limits assumed, looked up): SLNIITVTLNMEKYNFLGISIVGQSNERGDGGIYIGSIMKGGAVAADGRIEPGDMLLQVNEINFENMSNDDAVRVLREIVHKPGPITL

T2: APBA2_1, Q99767
T2 sequence (Q99767 563-664, limits assumed, looked up): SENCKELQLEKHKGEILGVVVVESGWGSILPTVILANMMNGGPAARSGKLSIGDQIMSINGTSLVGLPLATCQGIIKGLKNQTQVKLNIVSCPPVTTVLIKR

T3: ARHGAP21, Q5T5U3
T3 sequence (Q5T5U3 45-169, limits assumed, looked up): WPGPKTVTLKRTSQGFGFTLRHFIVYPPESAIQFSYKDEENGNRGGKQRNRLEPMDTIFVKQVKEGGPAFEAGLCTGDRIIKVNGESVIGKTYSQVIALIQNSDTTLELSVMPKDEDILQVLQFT

T4: SNTB1, Q13884
T4 sequence (Q13884 107-205, limits assumed, looked up): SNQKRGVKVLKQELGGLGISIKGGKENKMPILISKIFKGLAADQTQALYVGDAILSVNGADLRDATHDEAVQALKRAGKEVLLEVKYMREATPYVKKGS

T5: PDZD7_3, Q9H5P4
T5 sequence (Q9H5P4 857-944, limits assumed, looked up): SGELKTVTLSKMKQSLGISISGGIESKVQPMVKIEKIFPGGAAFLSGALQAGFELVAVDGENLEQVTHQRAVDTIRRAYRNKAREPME

T6: GRIP1_5, Q9Y3R0
T6 sequence (Q9Y3R0 568-668, limits assumed, looked up): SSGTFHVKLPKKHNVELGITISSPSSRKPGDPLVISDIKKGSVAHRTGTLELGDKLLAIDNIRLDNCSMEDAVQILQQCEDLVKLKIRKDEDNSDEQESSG

T7: APBA3_1, O96018
T7 sequence (O96018 389-490, limits assumed, looked up): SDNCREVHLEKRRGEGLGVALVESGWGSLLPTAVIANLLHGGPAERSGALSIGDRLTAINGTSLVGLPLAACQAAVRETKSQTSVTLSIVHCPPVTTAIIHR

T8: DLG3_1, Q92796
T8 sequence (Q92796 125-227, limits assumed, looked up): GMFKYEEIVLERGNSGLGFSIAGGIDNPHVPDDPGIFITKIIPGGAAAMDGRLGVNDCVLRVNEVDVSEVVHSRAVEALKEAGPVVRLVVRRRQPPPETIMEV

T9: DLG3_2, Q92796
T9 sequence (Q92796 221-321, limits assumed, looked up): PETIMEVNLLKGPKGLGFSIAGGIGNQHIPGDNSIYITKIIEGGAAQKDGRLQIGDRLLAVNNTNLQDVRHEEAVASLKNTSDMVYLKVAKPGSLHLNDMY

T10: FRMPD1, Q5SYB0
T10 sequence (Q5SYB0 52-145, limits assumed, looked up): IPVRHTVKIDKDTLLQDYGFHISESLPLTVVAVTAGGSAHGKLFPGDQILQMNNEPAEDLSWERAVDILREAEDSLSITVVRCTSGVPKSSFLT

T11: TJP3_3, O95049
T11 sequence (O95049 375-456, limits assumed, looked up): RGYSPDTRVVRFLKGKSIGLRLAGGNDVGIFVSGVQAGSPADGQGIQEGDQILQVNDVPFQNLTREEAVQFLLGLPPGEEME

T12: SHANK1, Q9Y566
T12 sequence (Q9Y566 658-767, limits assumed, looked up): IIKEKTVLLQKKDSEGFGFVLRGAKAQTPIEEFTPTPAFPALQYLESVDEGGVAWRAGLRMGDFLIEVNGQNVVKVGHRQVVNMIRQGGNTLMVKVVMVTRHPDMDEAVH

T13: SYNJ2BP, P57105
T13 sequence (P57105 8-110, limits assumed, looked up): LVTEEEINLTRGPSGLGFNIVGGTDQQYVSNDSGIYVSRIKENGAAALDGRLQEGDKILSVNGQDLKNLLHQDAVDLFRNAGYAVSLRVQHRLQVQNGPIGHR


Target: T1, DVL3, Q92997
Assay: holdup assay
Set-up: key: below the threshold = too weak to quantify, mostly under pKd 3.1 to 4
Conditions: plain residues with an end cap or a label only (N-terminal biotin on a linker: ado-ado)

Row | pKd | Binder
1 | below the threshold | NNMAFETTHF [SLC5A12, Q1EHB4]
2 | below the threshold | HLSTRQGTCV [ATRNL1, Q5VV63]

Target: T2, APBA2_1, Q99767
Assay: holdup assay
Set-up: key: below the threshold = too weak to quantify, mostly under pKd 3.1 to 4
Conditions: plain residues with an end cap or a label only (N-terminal biotin on a linker: ado-ado)

Row | pKd | Binder
3 | below the threshold | NNMAFETTHF [SLC5A12, Q1EHB4]
4 | below the threshold | HLSTRQGTCV [ATRNL1, Q5VV63]

Target: Inadl_6, Q8NI35
Assay: holdup assay
Set-up: key: below the threshold = too weak to quantify, mostly under pKd 3.1 to 4
Conditions: plain residues with an end cap or a label only (N-terminal biotin on a linker: ado-ado)

Inadl_6, Q8NI35, sequence (Q8NI35 1058-1167): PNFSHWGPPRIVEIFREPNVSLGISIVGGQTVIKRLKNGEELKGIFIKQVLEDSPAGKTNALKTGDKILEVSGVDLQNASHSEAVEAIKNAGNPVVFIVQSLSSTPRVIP

Row | pKd | Binder
5 | below the threshold | NNMAFETTHF [SLC5A12, Q1EHB4]
6 | below the threshold | HLSTRQGTCV [ATRNL1, Q5VV63]

Target: T3, ARHGAP21, Q5T5U3
Assay: holdup assay
Set-up: key: below the threshold = too weak to quantify, mostly under pKd 3.1 to 4
Conditions: plain residues with an end cap or a label only (N-terminal biotin on a linker: ado-ado)

Row | pKd | Binder
7 | 3.94 | NNMAFETTHF [SLC5A12, Q1EHB4]
8 | below the threshold | HLSTRQGTCV [ATRNL1, Q5VV63]

Target: GRID2IP_2, A4D2P6
Assay: holdup assay
Set-up: key: below the threshold = too weak to quantify, mostly under pKd 3.1 to 4
Conditions: plain residues with an end cap or a label only (N-terminal biotin on a linker: ado-ado)

GRID2IP_2, A4D2P6, sequence (A4D2P6 272-370): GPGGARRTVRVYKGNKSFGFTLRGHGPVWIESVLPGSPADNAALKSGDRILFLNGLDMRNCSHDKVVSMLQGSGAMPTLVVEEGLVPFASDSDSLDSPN

Row | pKd | Binder
9 | 3.49 | NNMAFETTHF [SLC5A12, Q1EHB4]
10 | 4.05 | HLSTRQGTCV [ATRNL1, Q5VV63]

Target: GRIP2_4, Q9C0E4
Assay: holdup assay
Set-up: key: below the threshold = too weak to quantify, mostly under pKd 3.1 to 4
Conditions: plain residues with an end cap or a label only (N-terminal biotin on a linker: ado-ado)

GRIP2_4, Q9C0E4, sequence (Q9C0E4 446-548): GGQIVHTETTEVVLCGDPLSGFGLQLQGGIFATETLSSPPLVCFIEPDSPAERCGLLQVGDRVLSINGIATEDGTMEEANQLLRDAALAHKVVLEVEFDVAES

Row | pKd | Binder
11 | below the threshold | NNMAFETTHF [SLC5A12, Q1EHB4]
12 | below the threshold | HLSTRQGTCV [ATRNL1, Q5VV63]

Target: T4, SNTB1, Q13884
Assay: holdup assay
Set-up: key: below the threshold = too weak to quantify, mostly under pKd 3.1 to 4
Conditions: plain residues with an end cap or a label only (N-terminal biotin on a linker: ado-ado)

Row | pKd | Binder
13 | below the threshold | NNMAFETTHF [SLC5A12, Q1EHB4]
14 | 3.99 | HLSTRQGTCV [ATRNL1, Q5VV63]

Target: HTRA1, Q92743
Assay: holdup assay
Set-up: key: below the threshold = too weak to quantify, mostly under pKd 3.1 to 4
Conditions: plain residues with an end cap or a label only (N-terminal biotin on a linker: ado-ado)

HTRA1, Q92743, sequence (Q92743 360-477): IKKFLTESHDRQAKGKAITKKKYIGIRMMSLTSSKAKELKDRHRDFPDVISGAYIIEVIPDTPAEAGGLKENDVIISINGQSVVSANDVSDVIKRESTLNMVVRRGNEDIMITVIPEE

Row | pKd | Binder
15 | 3.62 | NNMAFETTHF [SLC5A12, Q1EHB4]
16 | 4.91 | HLSTRQGTCV [ATRNL1, Q5VV63]

Target: T5, PDZD7_3, Q9H5P4
Assay: holdup assay
Set-up: key: below the threshold = too weak to quantify, mostly under pKd 3.1 to 4
Conditions: plain residues with an end cap or a label only (N-terminal biotin on a linker: ado-ado)

Row | pKd | Binder
17 | below the threshold | NNMAFETTHF [SLC5A12, Q1EHB4]
18 | 4.2 | HLSTRQGTCV [ATRNL1, Q5VV63]

Target: Inadl_4, Q8NI35
Assay: holdup assay
Set-up: key: below the threshold = too weak to quantify, mostly under pKd 3.1 to 4
Conditions: plain residues with an end cap or a label only (N-terminal biotin on a linker: ado-ado)

Inadl_4, Q8NI35, sequence (Q8NI35 547-651): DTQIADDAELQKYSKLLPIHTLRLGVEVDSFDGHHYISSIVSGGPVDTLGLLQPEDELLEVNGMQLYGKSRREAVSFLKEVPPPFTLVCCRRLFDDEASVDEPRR

Row | pKd | Binder
19 | below the threshold | NNMAFETTHF [SLC5A12, Q1EHB4]
20 | below the threshold | HLSTRQGTCV [ATRNL1, Q5VV63]

Target: MAGI2_6, Q86UL8
Assay: holdup assay
Set-up: key: below the threshold = too weak to quantify, mostly under pKd 3.1 to 4
Conditions: plain residues with an end cap or a label only (N-terminal biotin on a linker: ado-ado)

MAGI2_6, Q86UL8, sequence (Q86UL8 1141-1229): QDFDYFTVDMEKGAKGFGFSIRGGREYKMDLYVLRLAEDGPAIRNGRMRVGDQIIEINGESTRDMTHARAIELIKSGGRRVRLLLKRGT

Row | pKd | Binder
21 | 4 | NNMAFETTHF [SLC5A12, Q1EHB4]
22 | 4 | HLSTRQGTCV [ATRNL1, Q5VV63]

Target: SCRIB_2, Q14160
Assay: holdup assay
Set-up: key: below the threshold = too weak to quantify, mostly under pKd 3.1 to 4
Conditions: plain residues with an end cap or a label only (N-terminal biotin on a linker: ado-ado)

SCRIB_2, Q14160, sequence (Q14160 857-960): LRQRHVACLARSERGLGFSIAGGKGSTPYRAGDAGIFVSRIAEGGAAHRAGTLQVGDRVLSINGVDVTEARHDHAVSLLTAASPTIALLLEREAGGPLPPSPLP

Row | pKd | Binder
23 | below the threshold | NNMAFETTHF [SLC5A12, Q1EHB4]
24 | 4.02 | HLSTRQGTCV [ATRNL1, Q5VV63]

Target: MAGI2_5, Q86UL8
Assay: holdup assay
Set-up: key: below the threshold = too weak to quantify, mostly under pKd 3.1 to 4
Conditions: plain residues with an end cap or a label only (N-terminal biotin on a linker: ado-ado)

MAGI2_5, Q86UL8, sequence (Q86UL8 915-1017): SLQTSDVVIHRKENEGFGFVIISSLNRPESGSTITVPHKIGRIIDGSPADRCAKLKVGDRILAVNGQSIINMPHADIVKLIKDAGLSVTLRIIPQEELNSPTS

Row | pKd | Binder
25 | 4.1 | NNMAFETTHF [SLC5A12, Q1EHB4]
26 | 4.04 | HLSTRQGTCV [ATRNL1, Q5VV63]

Target: PDLIM1, O00151
Assay: holdup assay
Set-up: key: below the threshold = too weak to quantify, mostly under pKd 3.1 to 4
Conditions: plain residues with an end cap or a label only (N-terminal biotin on a linker: ado-ado)

PDLIM1, O00151, sequence (O00151 1-87): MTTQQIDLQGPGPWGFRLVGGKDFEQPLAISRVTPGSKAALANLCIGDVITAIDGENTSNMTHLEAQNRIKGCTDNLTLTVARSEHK

Row | pKd | Binder
27 | below the threshold | NNMAFETTHF [SLC5A12, Q1EHB4]
28 | below the threshold | HLSTRQGTCV [ATRNL1, Q5VV63]

Target: T6, GRIP1_5, Q9Y3R0
Assay: holdup assay
Set-up: key: below the threshold = too weak to quantify, mostly under pKd 3.1 to 4
Conditions: plain residues with an end cap or a label only (N-terminal biotin on a linker: ado-ado)

Row | pKd | Binder
29 | below the threshold | NNMAFETTHF [SLC5A12, Q1EHB4]
30 | below the threshold | HLSTRQGTCV [ATRNL1, Q5VV63]

Target: T7, APBA3_1, O96018
Assay: holdup assay
Set-up: key: below the threshold = too weak to quantify, mostly under pKd 3.1 to 4
Conditions: plain residues with an end cap or a label only (N-terminal biotin on a linker: ado-ado)

Row | pKd | Binder
31 | below the threshold | NNMAFETTHF [SLC5A12, Q1EHB4]
32 | below the threshold | HLSTRQGTCV [ATRNL1, Q5VV63]

Target: T8, DLG3_1, Q92796
Assay: holdup assay
Set-up: key: below the threshold = too weak to quantify, mostly under pKd 3.1 to 4
Conditions: plain residues with an end cap or a label only (N-terminal biotin on a linker: ado-ado)

Row | pKd | Binder
33 | below the threshold | NNMAFETTHF [SLC5A12, Q1EHB4]
34 | 3.84 | HLSTRQGTCV [ATRNL1, Q5VV63]

Target: DLG1_2, Q12959
Assay: holdup assay
Set-up: key: below the threshold = too weak to quantify, mostly under pKd 3.1 to 4
Conditions: plain residues with an end cap or a label only (N-terminal biotin on a linker: ado-ado)

DLG1_2, Q12959, sequence (Q12959 314-412): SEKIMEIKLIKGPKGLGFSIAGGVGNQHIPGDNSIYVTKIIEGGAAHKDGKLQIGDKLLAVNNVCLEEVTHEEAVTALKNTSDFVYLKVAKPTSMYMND

Row | pKd | Binder
35 | below the threshold | NNMAFETTHF [SLC5A12, Q1EHB4]
36 | 4.55 | HLSTRQGTCV [ATRNL1, Q5VV63]

Target: MAST1, Q9Y2H9
Assay: holdup assay
Set-up: key: below the threshold = too weak to quantify, mostly under pKd 3.1 to 4
Conditions: plain residues with an end cap or a label only (N-terminal biotin on a linker: ado-ado)

MAST1, Q9Y2H9, sequence (Q9Y2H9 962-1065): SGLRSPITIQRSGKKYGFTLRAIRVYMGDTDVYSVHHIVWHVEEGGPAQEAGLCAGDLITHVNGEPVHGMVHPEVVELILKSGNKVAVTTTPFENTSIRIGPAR

Row | pKd | Binder
37 | 4.77 | NNMAFETTHF [SLC5A12, Q1EHB4]
38 | 4.35 | HLSTRQGTCV [ATRNL1, Q5VV63]

Target: T9, DLG3_2, Q92796
Assay: holdup assay
Set-up: key: below the threshold = too weak to quantify, mostly under pKd 3.1 to 4
Conditions: plain residues with an end cap or a label only (N-terminal biotin on a linker: ado-ado)

Row | pKd | Binder
39 | 4.08 | NNMAFETTHF [SLC5A12, Q1EHB4]
40 | 4.22 | HLSTRQGTCV [ATRNL1, Q5VV63]

Target: T10, FRMPD1, Q5SYB0
Assay: holdup assay
Set-up: key: below the threshold = too weak to quantify, mostly under pKd 3.1 to 4
Conditions: plain residues with an end cap or a label only (N-terminal biotin on a linker: ado-ado)

Row | pKd | Binder
41 | below the threshold | NNMAFETTHF [SLC5A12, Q1EHB4]
42 | below the threshold | HLSTRQGTCV [ATRNL1, Q5VV63]

Target: T11, TJP3_3, O95049
Assay: holdup assay
Set-up: key: below the threshold = too weak to quantify, mostly under pKd 3.1 to 4
Conditions: plain residues with an end cap or a label only (N-terminal biotin on a linker: ado-ado)

Row | pKd | Binder
43 | below the threshold | NNMAFETTHF [SLC5A12, Q1EHB4]
44 | below the threshold | HLSTRQGTCV [ATRNL1, Q5VV63]

Target: T12, SHANK1, Q9Y566
Assay: holdup assay
Set-up: key: below the threshold = too weak to quantify, mostly under pKd 3.1 to 4
Conditions: plain residues with an end cap or a label only (N-terminal biotin on a linker: ado-ado)

Row | pKd | Binder
45 | 5.81 | NNMAFETTHF [SLC5A12, Q1EHB4]
46 | below the threshold | HLSTRQGTCV [ATRNL1, Q5VV63]

Target: T13, SYNJ2BP, P57105
Assay: holdup assay
Set-up: key: below the threshold = too weak to quantify, mostly under pKd 3.1 to 4
Conditions: plain residues with an end cap or a label only (N-terminal biotin on a linker: ado-ado)

Row | pKd | Binder
47 | below the threshold | NNMAFETTHF [SLC5A12, Q1EHB4]
48 | 5.37 | HLSTRQGTCV [ATRNL1, Q5VV63]
